Assay results as given in the RNAGym collection of RNA variant scans (doi:10.1073/pnas.2313332121).

B1: TPR t1 (parent)
chain: GACCAAUCUGCCCUCAGAGCUCGAGAACAUCUUCGGAUGCAGAGGAGGCAGGCUUCGGUGGCGCGAUAGCGCCAACGUCCUCAACCUCCAAUGCAUCCCACCACAUGAUGAUGCCUGAAGAGCCUUGGUUUUUUG

Variants of: B1
Assay: polymerase ribozyme fitness, log enrichment relative to wild type (log ratio); higher = more active; in vitro selection for triplet polymerase activity
In short: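 Each subunit of a heterodimeric triplet polymerase ribozyme was represented by a PCR-built, transcribed mutant library that underwent triplicate single-round in vitro selection with frozen incubation at −7 °C. Extended constructs were recovered by gel excision, streptavidin-bead capture and RT-PCR, and Illumina sequencing of input and output libraries kept genotypes with ≥10 input reads and ≥1 read per output. Fitness is the logarithm of genotype enrichment relative to wild-type enrichment, from inverse-variance-weighted replicate averages, with a logarithm base of 2.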

| Variant | polymerase ribozyme fitness (log ratio) |
| --- | --- |
| GACCAAUCUGCCCUCAGAGCUCGAGAACAUCUUCGGAUGCAGAGGAGGCAGGCUUCGGUGGCGCGAUAGCGCCAACGUCCUCAACCUCCAAUGCAUCCCACCACAUGAUGAUGCCUAAAGAGCCUUGGUUUUUUG | -1.1 |
| GACCAAUCUGCCCUCAGAGCUCGAGAACAUCUUCGGAUGCAGAGGAGGCAGGCUUCGGUGGCGCGAUAGCGCCAACGUCCUCAACCUCCAAUGCAUCCCACCACAUGAUGAUGCCUCAAGAGCCUUGGUUUUUUG | -3.16 |
| GACCAAUCUGCCCUCAGAGCUCGAGAACAUCUUCGGAUGCAGAGGAGGCAGGCUUCGGUGGCGCGAUAGCGCCAACGUCCUCAACCUCCAAUGCAUCCCACCACAUGAUGAUGCCUUAAGAGCCUUGGUUUUUUG | -2.21 |
| GACCAAUCUGCCCUCAGAGCUCGAGAACAUCUUCGGAUGCAGAGGAGGCAGGCUUCGGUGGCGCGAUAGCGCCAACGUCCUCAACCUCCAAUGCAUCCCACCACAUGAUGAUGCCUAAAGUGCCUUGGUUUUUUG | 1.08 |
| GACCAAUCUGCCCUCAGAGCUCGAGAACAUCUUCGGAUGCAGAGGAGGCAGGCUUCGGUGGCGCGAUAGCGCCAACGUCCUCAACCUCCAAUGCAUCCCACCACAUGAUGAUGCAUGAUGAGCCUUGGUUUUUUG | -1.26 |
| GACCAAUCUGCCCUCAGAGCUCGAGAACAUCUUCGGAUGCAGAGGAGGCAGGCUUCGGUGGCGCGAUAGCGCCAACGUCCUCAACCUCCAAUGCAUCCCACCACAUGAUGAUGCCAGAAUAGCCUUGGUUUUUUG | -1.5 |
| GACCAAUCUGCCCUCAGAGCUCGAGAACAUCUUCGGAUGCAGAGGAGGCAGGCUUCGGUGGCGCGAUAGCGCCAACGUCCUCAACCUCCAAUGCAUCCCACCACAUGAUGAUGUCUGAAGAGCCUUAGUUUUUUG | -3.37 |
| GACCAAUCUGCCCUCAGAGCUCGAGAACAUCUUCGGAUGCAGAGGAGGCAGGCUUCGGUGGCGCGAUAGCGCCAACGUCCUCAACCUCCAAUGCAUCCCACCACAUGAUGAUGCUUGAAGAGCCUUGGAUUUUUG | -3.34 |
| GACCAAUCUGCCCUCAGAGCUCGAGAACAUCUUCGGAUGCAGAGGAGGCAGGCUUCGGUGGCGCGAUAGCGCCAACGUCCUCAACCUCCAAUGCAUCCCACCACAUGAUGAUGCUUGUAGAGCCUUGGUUUUUUG | -1.41 |
| GACCAAUCUGCCCUCAGAGCUCGAGAACAUCUUCGGAUGCAGAGGAGGCAGGCUUCGGUGGCGCGAUAGCGCCAACGUCCUCAACCUCCAAUGCAUCCCACCACAUGAUGAUGCCCGAAGAGCCUUGGUUUCUUG | -1.33 |
| GACCAAUCUGCCCUCAGAGCUCGAGAACAUCUUCGGAUGCAGAGGAGGCAGGCUUCGGUGGCGCGAUAGCGCCAACGUCCUCAACCUCCAAUGCAUCCCACCACAUGAUGAUGCUUGAAGAGCCUUCGUUUUUUG | -2.76 |
| GACCAAUCUGCCCUCAGAGCUCGAGAACAUCUUCGGAUGCAGAGGAGGCAGGCUUCGGUGGCGCGAUAGCGCCAACGUCCUCAACCUCCAAUGCAUCCCACCACAUGAUGAUGCAUGAAGAGCCUUUGUUUUUUG | -2.8 |
| GACCAAUCUGCCCUCAGAGCUCGAGAACAUCUUCGGAUGCAGAGGAGGCAGGCUUCGGUGGCGCGAUAGCGCCAACGUCCUCAACCUCCAAUGCAUCCCACCACAUGAUGAUGCAUGAAGAGCCUUAGUUUUUUG | -0.375 |
| GACCAAUCUGCCCUCAGAGCUCGAGAACAUCUUCGGAUGCAGAGGAGGCAGGCUUCGGUGGCGCGAUAGCGCCAACGUCCUCAACCUCCAAUGCAUCCCACCACAUGAUGAUGCAUGAAGAGCCUUCGUUUUUUG | -1.67 |
| GACCAAUCUGCCCUCAGAGCUCGAGAACAUCUUCGGAUGCAGAGGAGGCAGGCUUCGGUGGCGCGAUAGCGCCAACGUCCUCAACCUCCAAUGCAUCCCACCACAUGAUGAUGCCUAACCAACCUUGGUUUUGUG | -3.42 |
| GACCAAUCUGCCCUCAGAGCUCGAGAACAUCUUCGGAUGCAGAGGAGGCAGGCUUCGGUGGCGCGAUAGCGCCAACGUCCUCAACCUCCAAUGCAUCCCACCACAUGAUGAUGCCAGAAGAGCCUUGGAUUUUUG | -4.24 |
| GACCAAUCUGCCCUCAGAGCUCGAGAACAUCUUCGGAUGCAGAGGAGGCAGGCUUCGGUGGCGCGAUAGCGCCAACGUCCUCAACCUCCAAUGCAUCCCACCACAUGAUGAUGCCCGAAGAGCCUUGGUUUUUUG | -0.392 |
| GACCAAUCUGCCCUCAGAGCUCGAGAACAUCUUCGGAUGCAGAGGAGGCAGGCUUCGGUGGCGCGAUAGCGCCAACGUCCUCAACCUCCAAUGCAUCCCACCACAUGAUGAUGCCGGAAGAGCCUUGGUUUUUUG | -1.95 |
| GACCAAUCUGCCCUCAGAGCUCGAGAACAUCUUCGGAUGCAGAGGAGGCAGGCUUCGGUGGCGCGAUAGCGCCAACGUCCUCAACCUCCAAUGCAUCCCACCACAUGAUGAUGCCAGAAGAGCCUUGGUUUUUUG | -2.96 |
| GACCAAUCUGCCCUCAGAGCUCGAGAACAUCUUCGGAUGCAGAGGAGGCAGGCUUCGGUGGCGCGAUAGCGCCAACGUCCUCAACCUCCAAUGCAUCCCACCACAUGAUGAUGUCUGAAGAACCUUGGUUUUUUG | -2.83 |
| GACCAAUCUGCCCUCAGAGCUCGAGAACAUCUUCGGAUGCAGAGGAGGCAGGCUUCGGUGGCGCGAUAGCGCCAACGUCCUCAACCUCCAAUGCAUCCCACCACAUGAUGAUGUCUGGAGAGCCUUGGUUUUUUG | -2.12 |
